How the values were obtained:
Assay in all cases: holdup assay
Design in all cases: key: below the threshold = too weak to quantify, mostly under pKd 3.1 to 4
[1] = molecular target: T1, ARHGEF11, O15085
T1 sequence (O15085 42-136, limits assumed, looked up): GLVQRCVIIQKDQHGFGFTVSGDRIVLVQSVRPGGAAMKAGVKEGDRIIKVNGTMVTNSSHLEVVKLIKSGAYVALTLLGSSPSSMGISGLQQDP

[2] = molecular target: T2, DFNB31_1, Q9P202
T2 sequence (Q9P202 135-233, limits assumed, looked up): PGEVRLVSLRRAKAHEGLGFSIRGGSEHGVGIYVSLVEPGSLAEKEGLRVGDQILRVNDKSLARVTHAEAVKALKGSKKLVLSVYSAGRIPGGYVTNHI

[3] = molecular target: T3, DFNB31_3, Q9P202
T3 sequence (Q9P202 811-907, limits assumed, looked up): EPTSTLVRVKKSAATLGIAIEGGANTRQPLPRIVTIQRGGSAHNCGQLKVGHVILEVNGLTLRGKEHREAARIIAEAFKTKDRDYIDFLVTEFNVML

[4] = molecular target: DLG1_1, Q12959
[5] = molecular target: DLG1_3, Q12959
[6] = molecular target: DLG2_2, Q15700
[7] = molecular target: DLG4_2, P78352
[8] = molecular target: DLG5_1, Q8TDM6
[9] = molecular target: T4, DVL3, Q92997
T4 sequence (Q92997 244-331, limits assumed, looked up): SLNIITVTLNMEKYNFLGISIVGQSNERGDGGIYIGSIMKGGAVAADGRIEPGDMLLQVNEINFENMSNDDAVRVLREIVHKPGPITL

[10] = molecular target: FRMPD2_2, Q68DX3
[11] = molecular target: T5, GRIP1_3, Q9Y3R0
T5 sequence (Q9Y3R0 247-346, limits assumed, looked up): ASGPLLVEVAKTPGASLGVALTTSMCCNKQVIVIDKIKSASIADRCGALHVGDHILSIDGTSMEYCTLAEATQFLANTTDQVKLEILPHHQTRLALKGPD

[12] = molecular target: GRIP2_3, Q9C0E4
[13] = molecular target: GRIP2_4, Q9C0E4
[14] = molecular target: HTRA1, Q92743
[15] = molecular target: IL16_1, Q14005
[16] = molecular target: Inadl_2, Q8NI35
[17] = molecular target: Inadl_8, Q8NI35
[18] = molecular target: LIMK2, P53671
[19] = molecular target: T6, LIN7C, Q9NUP9
T6 sequence (Q9NUP9 88-185, limits assumed, looked up): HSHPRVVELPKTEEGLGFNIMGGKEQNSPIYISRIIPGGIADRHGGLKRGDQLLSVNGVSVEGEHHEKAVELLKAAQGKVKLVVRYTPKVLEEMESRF

[20] = molecular target: MAGI2_3, Q86UL8
[21] = molecular target: PARD3_3, Q8TEW0
[22] = molecular target: PDZRN4_1, Q6ZMN7
[23] = molecular target: T7, RAPGEF6, Q8TEU7
T7 sequence (Q8TEU7 525-625, limits assumed, looked up): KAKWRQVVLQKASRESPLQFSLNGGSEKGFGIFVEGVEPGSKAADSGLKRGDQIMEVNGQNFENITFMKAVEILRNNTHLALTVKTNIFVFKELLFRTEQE

[24] = molecular target: T8, RHPN1, Q8TCX5
T8 sequence (Q8TCX5 508-602, limits assumed, looked up): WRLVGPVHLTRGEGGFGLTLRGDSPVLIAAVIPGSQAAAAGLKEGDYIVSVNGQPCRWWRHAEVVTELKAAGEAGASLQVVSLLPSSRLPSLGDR

[25] = molecular target: T9, SNTG1, Q9NSN8
T9 sequence (Q9NSN8 52-150, limits assumed, looked up): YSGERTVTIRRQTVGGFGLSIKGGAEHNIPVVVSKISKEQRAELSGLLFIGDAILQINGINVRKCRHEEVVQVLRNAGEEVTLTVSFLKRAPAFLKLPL

[26] = molecular target: T10, SNTG2, Q9NY99
T10 sequence (Q9NY99 68-166, limits assumed, looked up): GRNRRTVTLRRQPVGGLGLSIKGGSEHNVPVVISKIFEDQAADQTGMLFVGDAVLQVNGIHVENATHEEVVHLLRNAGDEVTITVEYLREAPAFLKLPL

[27] = molecular target: T11, TIAM2, Q8IVF5
T11 sequence (Q8IVF5 885-986, limits assumed, looked up): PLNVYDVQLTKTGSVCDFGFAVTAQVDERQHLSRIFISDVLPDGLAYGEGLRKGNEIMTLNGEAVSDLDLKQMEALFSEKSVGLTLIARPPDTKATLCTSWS

[28] = plain residues with an end cap or a label only (N-terminal biotin on a linker: ttds)
[29] = plain residues with an end cap or a label only (N-terminal biotin on a linker: ahx)

PARD3_3, Q8TEW0, sequence (Q8TEW0 582-685): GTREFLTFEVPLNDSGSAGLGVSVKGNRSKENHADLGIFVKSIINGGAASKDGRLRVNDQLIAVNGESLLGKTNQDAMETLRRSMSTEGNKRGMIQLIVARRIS
DLG5_1, Q8TDM6, sequence (Q8TDM6 617-713): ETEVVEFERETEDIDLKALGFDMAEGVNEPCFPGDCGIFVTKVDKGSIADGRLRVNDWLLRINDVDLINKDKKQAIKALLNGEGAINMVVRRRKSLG
HTRA1, Q92743, sequence (Q92743 360-477): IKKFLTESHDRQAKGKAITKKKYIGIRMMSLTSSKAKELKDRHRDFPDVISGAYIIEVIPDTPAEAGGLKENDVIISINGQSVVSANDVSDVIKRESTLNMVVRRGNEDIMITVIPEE
MAGI2_3, Q86UL8, sequence (Q86UL8 600-682): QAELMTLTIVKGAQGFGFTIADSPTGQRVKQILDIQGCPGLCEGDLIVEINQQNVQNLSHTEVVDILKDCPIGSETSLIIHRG
Inadl_8, Q8NI35, sequence (Q8NI35 1425-1530): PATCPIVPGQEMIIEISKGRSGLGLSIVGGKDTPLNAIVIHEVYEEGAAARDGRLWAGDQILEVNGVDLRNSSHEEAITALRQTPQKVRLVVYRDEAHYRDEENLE
Inadl_2, Q8NI35, sequence (Q8NI35 238-335): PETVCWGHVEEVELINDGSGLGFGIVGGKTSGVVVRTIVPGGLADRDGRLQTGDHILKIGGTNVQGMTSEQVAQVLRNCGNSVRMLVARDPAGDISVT
DLG4_2, P78352, sequence (P78352 155-259): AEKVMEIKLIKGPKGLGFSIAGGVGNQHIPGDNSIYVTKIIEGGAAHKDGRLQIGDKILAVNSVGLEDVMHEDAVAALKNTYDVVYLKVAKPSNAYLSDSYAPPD
PDZRN4_1, Q6ZMN7, sequence (Q6ZMN7 213-318): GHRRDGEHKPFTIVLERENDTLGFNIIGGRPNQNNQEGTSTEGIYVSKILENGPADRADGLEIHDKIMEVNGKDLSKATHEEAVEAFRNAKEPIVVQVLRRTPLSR
DLG2_2, Q15700, sequence (Q15700 189-283): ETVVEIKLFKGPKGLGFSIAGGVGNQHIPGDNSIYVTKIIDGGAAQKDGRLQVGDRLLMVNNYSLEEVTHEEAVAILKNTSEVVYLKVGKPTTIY
FRMPD2_2, Q68DX3, sequence (Q68DX3 944-1038): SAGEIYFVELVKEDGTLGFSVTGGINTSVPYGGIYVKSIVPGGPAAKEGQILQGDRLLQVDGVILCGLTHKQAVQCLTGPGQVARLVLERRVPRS
GRIP2_4, Q9C0E4, sequence (Q9C0E4 446-548): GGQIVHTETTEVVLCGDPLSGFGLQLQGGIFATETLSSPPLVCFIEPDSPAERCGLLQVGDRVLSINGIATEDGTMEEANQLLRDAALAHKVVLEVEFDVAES
GRIP2_3, Q9C0E4, sequence (Q9C0E4 238-339): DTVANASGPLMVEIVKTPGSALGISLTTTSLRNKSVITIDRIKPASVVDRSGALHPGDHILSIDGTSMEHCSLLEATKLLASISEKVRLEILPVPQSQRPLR
LIMK2, P53671, sequence (P53671 143-248): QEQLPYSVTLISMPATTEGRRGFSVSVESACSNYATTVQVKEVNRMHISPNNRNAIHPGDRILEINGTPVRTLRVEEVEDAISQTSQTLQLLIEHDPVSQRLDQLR
IL16_1, Q14005, sequence (Q14005 210-306): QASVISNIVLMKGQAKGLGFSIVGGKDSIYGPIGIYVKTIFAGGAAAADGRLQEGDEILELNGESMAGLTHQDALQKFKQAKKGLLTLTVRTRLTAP

Question: Which pKd [1, 28] does the source give for SRSRRRETAL [HPV33-E6, P06427] here?
Answer: 4.25

Question: What about the pKd [2, 28] of the same binder?
Answer: 3.77

Question: And the pKd [3, 28]?
Answer: below the threshold

Question: And the pKd [4, 28]?
Answer: 4.5

Question: What about the pKd [5, 28] of the same binder?
Answer: 4.56

Question: What about the pKd [6, 28] of the same binder?
Answer: 4.57

Question: What about the pKd [7, 28] of the same binder?
Answer: 4.77

Question: And the pKd [8, 28]?
Answer: below the threshold

Question: And the pKd [9, 28]?
Answer: below the threshold

Question: And the pKd [10, 28]?
Answer: below the threshold

Question: And the pKd [11, 28]?
Answer: below the threshold

Question: What about the pKd [12, 28] of the same binder?
Answer: below the threshold

Question: And the pKd [13, 28]?
Answer: below the threshold

Question: What about the pKd [14, 28] of the same binder?
Answer: 3.48

Question: And the pKd [15, 28]?
Answer: below the threshold

Question: What about the pKd [16, 28] of the same binder?
Answer: below the threshold

Question: And the pKd [17, 28]?
Answer: below the threshold

Question: What about the pKd [18, 28] of the same binder?
Answer: below the threshold

Question: And the pKd [19, 28]?
Answer: 4.14

Question: What about the pKd [20, 28] of the same binder?
Answer: below the threshold

Question: And the pKd [21, 28]?
Answer: below the threshold

Question: And the pKd [22, 28]?
Answer: 5.21

Question: And the pKd [23, 28]?
Answer: below the threshold

Question: And the pKd [24, 28]?
Answer: 3.81

Question: What about the pKd [25, 28] of the same binder?
Answer: 3.62

Question: And the pKd [26, 28]?
Answer: 4.48

Question: And the pKd [27, 28]?
Answer: below the threshold

Question: What does the source list for FVETQHQTQV [FAT3, Q8TDW7]?
Answer: pKd [1, 28]: 4.22; pKd [2, 28]: 3.48; pKd [3, 28]: below the threshold; pKd [4, 28]: 4.32; pKd [5, 28]: 3.95; pKd [6, 28]: 4.5; pKd [7, 28]: 4.57; pKd [8, 28]: below the threshold; pKd [9, 28]: 3.65; pKd [10, 28]: 3.97; pKd [11, 28]: 3.62; pKd [12, 28]: below the threshold; pKd [13, 28]: below the threshold; pKd [14, 28]: below the threshold; pKd [15, 28]: below the threshold; pKd [16, 28]: 3.56; pKd [17, 28]: below the threshold; pKd [18, 28]: below the threshold; pKd [19, 28]: below the threshold; pKd [20, 28]: 3.63; pKd [21, 28]: below the threshold; pKd [22, 28]: below the threshold; pKd [23, 28]: below the threshold; pKd [24, 28]: 4.32; pKd [25, 28]: 4.02; pKd [26, 28]: 3.82; pKd [27, 28]: below the threshold

Question: Which results are given for PKMKLNETSF [SHKBP1, Q8TBC3]?
Answer: pKd [1, 29]: below the threshold; pKd [2, 29]: 3.66; pKd [3, 29]: below the threshold; pKd [4, 29]: below the threshold; pKd [5, 29]: below the threshold; pKd [6, 29]: below the threshold; pKd [7, 29]: below the threshold; pKd [8, 29]: below the threshold; pKd [9, 29]: below the threshold; pKd [10, 29]: below the threshold; pKd [11, 29]: below the threshold; pKd [12, 29]: below the threshold; pKd [13, 29]: below the threshold; pKd [14, 29]: below the threshold; pKd [15, 29]: below the threshold; pKd [16, 29]: below the threshold; pKd [17, 29]: below the threshold; pKd [18, 29]: below the threshold; pKd [19, 29]: 3.49; pKd [20, 29]: below the threshold; pKd [21, 29]: below the threshold; pKd [22, 29]: below the threshold; pKd [23, 29]: below the threshold; pKd [24, 29]: 3.72; pKd [25, 29]: 3.68; pKd [26, 29]: below the threshold; pKd [27, 29]: below the threshold
